Positions count from the first letter of the chain named.
T1: recombinant human CD27/TNFRSF7/Fc chimera (R&D Systems Catalog No. 382-CD) (UniProt P26842 20-191)
T1 chain: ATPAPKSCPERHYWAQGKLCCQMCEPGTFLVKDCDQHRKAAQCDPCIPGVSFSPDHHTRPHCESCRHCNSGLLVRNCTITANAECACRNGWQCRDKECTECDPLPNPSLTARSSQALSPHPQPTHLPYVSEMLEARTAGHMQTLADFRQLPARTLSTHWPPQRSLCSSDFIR

B1: 3H8-1B11 (antibody, V domains shown)
VH: EVQLVESGGGLVQPGGSLRLSCAASGFTFSSYWMAWVRQAPGKGLEWLGNIKQDGSEKYYVDSVKGRFTISRDNAKNSLYLQMNSLRAEDTAVYYCVRELGMDWYFDLWGRGTLVTVSS
VL: EIVLTQSPATLSLSPGERATLSCRASQSVDSYLAWYQQKPGQAPRLLIYDASNRATGIPARFSGSGSGTDFTLTISNLEPEDFAVYYCQQRSNWPPTFGQGTKVEIK
B2: 1G5-1B9 (antibody, V domains shown)
VH: QVQLVESGGGVVQPGRSLRLSCAASGFSFSSYGMHWVRQAPGKGLEWVALLWYDGSHKDFADSVKGRFTISRDNSKNTLDLQMNSLRAEDTAVYYCAREGLAVPGHWYFDLWGRGTLVTVSS
VL: AIQLTQSPSSLSASVGDRVTITCRASQGISSALAWYQQKPGKAPKLLIYDASSLESGVPSRFSGSGSGTDFTLTISSLQPEDFATYYCQQFNTYPRTFGQGTKVEIK
B3: 2C2-1A10 (antibody, V domains shown)
VH: QVQLVESGGGVVQPGRSLRLSCAASGFTFSSYDIHWVRQAPGKGLEWVAVIWNDGSNKYYADSVKGRFTISRDNSTNSLFLQMNSLRAEDTAVYYCVGGTADLEHWDQGTLVTVSS
VL: DIQMTQSPSSLSASVGDRVTITCRASQGISSWLAWYQQKPEKAPKSLIYAASSLQSGVPSRFSGSGSGTDFTLTISSLQPEDFATYYCQQYNSYPLTFGGGTKVEIK
B4: 1H8-B4 (antibody, V domains shown)
VH: QVQLVESGGGVVQPGRSLRLSCAASGFTFNIYDMHWVRQAPGKGLEWVAVIWYDGSNQYYADSVKGRFTISRDNSKNTLYLQMNILRAEDTAVYYCARGTHWGYFDYWGQGTLVTVSS
VL: B3 VL with S53N, L96R, G100Q
B5: 2G9-1D11 (antibody, V domains shown)
VH: B3 VH with F29L, Y32H, G98R
VL: B3 VL
B6: 3H12-1E12 (antibody, V domains shown)
VH: QVQLVESGGGVVQPGRSLRLSCATSGFTFSSYDMHWVRQAPGKGLEWVAVIWYDGSNKYYADSVKGRFTISRDNSKNTLYLQMNSLGDEDTAVYYCARGSGNWGFFDYWGQGTLVTVSS
VL: B3 VL with S31R, S93T, L96R, G100Q
B7: 1F5-1H5 (antibody, V domains shown)
VH: B6 VH with T24A, G87R, D88A
VL: B3 VL with S31R, S93T, L96R, G100Q
B8: 3A10-G10 (antibody, V domains shown)
VH: QVQLVESGGGVVQPGRSLRLSCAASGFTFSHYGMHWVRQAPGKGPEWVAIIWYDGSNKYYADSVKGRFTISRDNSKNTLDLQMNSLRAEDTAVYYCARDGWTTMVRGLNVFDIWGQGTMVTVSS
VL: B3 VL with G28D, L96P, G100Q, K103R, V104L

Columns and labels:
[1] = molecular target: T1, recombinant human CD27/TNFRSF7/Fc …; assay: Biacore SPR
[2] = molecular target: T1, recombinant human CD27/TNFRSF7/Fc …; assay: Biacore SPR

| Binder | Kd [1] [nM] | Ka [2] [M⁻¹] |
| --- | --- | --- |
| B1 | 0.0556 | 1.81e+10 |
| B2 | 0.402 | 2.55e+09 |
| B3 | 0.0841 | 1.2e+10 |
| B4 | 0.158 | 6.39e+09 |
| B5 | 0.00153 | 6.6e+11 |
| B6 | 0.358 | 2.8e+09 |
| B7 | 0.186 | 5.37e+09 |
| B8 | 0.202 | 4.97e+09 |
